Data as given in US20250049914A1, “STEROID ACID-PEPTIDE BASED INTRACELLULAR CARGO DELIVERY” (DEFENCE THERAPEUTICS INC., priority 2021, published 2025).
Entries after “also recorded” stand apart in the source; their conditions may differ. Where a SMILES comes first, the peptide text is derived from it. The star is where a group is joined. Cholyl = C[C@H](CCC(=O)*)[C@H]1CC[C@H]2[C@@H]3[C@H](O)C[C@@H]4C[C@H](O)CC[C@]4(C)[C@H]3C[C@H](O)[C@]12C

Columns and labels:
EL4 cells = assay: Cytochrome C cytosolic delivery, cell death (annexin V binding) by flow cytometry; format: cell-based
Experimental: Cytochrome C is a protein that is normally entrapped in the mitochondria but its release into the cytosol in known to induce cell death. An experiment was performed in which EL4 cells were incubated with recombinant cytochrome C either alone (FIG. 8A) or mixed with CA-SV40 NLS (47 μM) (FIG. 8B). Successful delivery of cytochrome C to the cytosol in its active form was assessed by measuring cell death (annexin V binding) via flow cytometry.

DC2.4 cells = assay: eGFP-Gal3 assessment of damaged endosomes by microscopy; format: cell-based, murine; settings: 0.1 mg/mL cargo, 3 h, 37° C.
Experimental: For this assay, 15×10^3 DC2.4 cells were seeded on a sterile cover slide in a 24-well plate. Two days following transfection of DC2.4 cells with the eGFP-hGal3 mammalian expression vector, 0.1 mg/mL of cargo was added to cells then incubated for 3 h at 37° C. The cells were then washed twice to remove excess protein prior to being mounted on a slide. The slides were viewed by fluorescent microscopy (Nikon, Eclipse™ Ti2-U) and the results analyzed using the ImageJ™ software.
A GFP-galectin-3 (GFP-Gal3) based detection system was utilized to explore the effect on endosomal membranes following intracellular delivery of steroid acid-peptide-conjugated cargoes. […] When expressed under normal conditions, Gal3 is evenly distributed across the cytosol but disruption of endosomal membranes allows Gal3 to access and bind luminal glycoproteins. We thus transiently transfected the murine dendritic cell line DC2.4 with a construct expressing Gal3 fused to enhanced green fluorescent protein (eGFP-Gal3). Two days later, DC2.4 cells were incubated with 0.1 mg/mL of either unconjugated OVA cargo or [CA-SV40]-OVA conjugated cargo for 3 h at 37° C. and the cells were observed by fluorescent microscopy.

[1] = system: primary bone marrow-derived DCs; assay: DQ OVA intracellular degradation/processing, flow cytometry; format: cell-based, mouse; settings: primary BMDCs, six hours
Experimental: Mouse bone marrow derived DCs (BMDCs) were generated by flushing the whole marrow from mouse femurs using RPMI™ 1640 supplemented with 10% fetal bovine serum (FBS), 50 U/mL Penicillin-Streptomycin, 2 mM L-glutamine, 10 mM HEPES, 1% MEM Non-essential Amino Acids, 1 mM Sodium Pyruvate, 0.5 mM beta-mercaptoethanol. Following red blood cell lysis, cells were then cultured in media supplemented with 50 ng/mL murine recombinant GM-CSF. The media was changed on days 2, 4, 6 and 8. On day 9, the media was replaced to include recombinant murine GM-CSF and LPS from Escherichia coli 0111 (1 ng/mL) to stimulate DC maturation. Mature DCs were assessed by flow cytometry for their surface expression of CD3, CD19, NK1.1, CD11c, CD80, CD86, and I-A^b. To evaluate OVA degradation/processing, cells were incubated with 10 µg/mL DQ™ OVA (with or without steroid acid-peptide modification) at 37° C. 30 minutes later, cells were washed, and regular media was added. […] Fluorescence was monitored by analyzing the cells by flow cytometry. […] Briefly, while a strong fluorescence quenching effect is observed when the DQ™ OVA substrate remains intact, hydrolysis of DQ™ OVA into single dye-labeled peptides by proteases relieves this quenching, thereby producing brightly fluorescent products. […] Cells were then collected and fluorescence was monitored by flow cytometry.

For `CC(C)[C@H](NC(=O)[C@H](CCCCN)NC(=O)[C@H](CCCNC(=N)N)NC(=O)[C@H](CCCCN)NC(=O)[C@H](CCCCN)NC(=O)[C@H](CCCCN)NC(=O)[C@@H]1CCCN1C(=O)CNC(=O)[C@H](Cc1ccc(O)cc1)NC(=O)CNC(=O)[C@H](CS)NC(=O)CC[C@@H](C)[C@H]1CC[C@H]2[C@@H]3[C@H](O)C[C@@H]4C[C@H](O)CC[C@]4(C)[C@H]3C[C@H](O)[C@]12C)C(=O)NCC(=O)NCC(=O)O` [CA-SV40] (Cholyl-CGYGPKKKRKVGG-OH), the “cell death, conjugate alone” value (EL4 cells; CA-SV40 NLS conjugate alone) was 19%.

cytochrome C was tested, and the “cell death, cytochrome C alone” value (EL4 cells; recombinant cytochrome C alone) was “did not trigger cell death”.

B1: [CA-SV40]-OVA: OVA covalently conjugated to CA-SV40 NLS moieties via SM(PEG)4 cross-linker (conjugate, UniProt P01012 2-386, looked up)
Ovalbumin: GSIGAASMEFCFDVFKELKVHHANENIFYCPIAIMSALAMVYLGAKDSTRTQINKVVRFDKLPGFGDSIEAQCGTSVNVHSSLRDILNQITKPNDVYSFSLASRLYAEERYPILPEYLQCVKELYRGGLEPINFQTAADQARELINSWVESQTNGIIRNVLQPSSVDSQTAMVLVNAIVFKGLWEKAFKDEDTQAMPFRVTEQESKPVQMMYQIGLFRVASMASEKMKILELPFASGTMSMLVLLPDEVSGLEQLESIINFEKLTEWTSSNVMEERKIKVYLPRMKMEEKYNLTSVLMAMGITDVFSSSANLSGISSAESLKISQAVHAAHAEINEAGREVVGSAEAGVDAASVSEEFRADHPFLFCIKHIATNAVLFFGRCVSP
modifications: CA-SV40 NLS peptides via SM(PEG)4
notes: OVA covalently conjugated to CA-SV40 NLS moieties via SM(PEG)4 cross-linker
With B1 the “eGFP-Gal3 marker pattern (endosomal membrane disruption)” value (DC2.4 cells) was “became punctate; also recorded: punctate pattern”.

B2: [CA-SV40]-DQ™ OVA: DQ OVA conjugated with a molar excess of CA-SV40 NLS steroid acid-peptide moieties (conjugate, UniProt P01012 2-386, looked up)
Ovalbumin: B1 Ovalbumin
modifications: DQ fluorophore label; CA-SV40 NLS conjugates
notes: DQ OVA conjugated with a molar excess of CA-SV40 NLS steroid acid-peptide moieties
In the case of B2, the “DQ OVA fluorescence (intracellular degradation/processing)” value [1] is reported as “sharp increase”.

B3: DQ™ OVA: fluorogenic substrate DQ ovalbumin (protein, UniProt P01012 2-386, looked up)
Ovalbumin: B1 Ovalbumin
modifications: DQ fluorophore label
notes: fluorogenic substrate DQ ovalbumin
In the case of B3, the “DQ OVA fluorescence (intracellular degradation/processing)” value [1] is reported as “not observed”.
